According to article PMC1097722:

Biological target: Gal4-16.4.1 fusion protein (pBIND-16.4.1) (human)
Assay: two-hybrid

| Substance | fold induction of luciferase activity | other |
| --- | --- | --- |
| VP16-Rev fusion protein (pACT-Rev) (from UniProt P04618 1-116) (natural protein) | 11 fold | – |
| VP16-hCRM1 fusion protein (pACT-hCRM1) (from UniProt O14980 1-1071) (natural protein) | – | 41 fold |
